Experimental data taken from the supplement of paper PMC11865577.

test system: TO-N3 (biotin conjugate); experiment: pull-down binding Z-score (relative to library population); higher = stronger binding; conditions: RNA library: Library-2
Method in brief: (§1)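 Streptavidin beads bearing 100 pmol of a biotin-conjugated small molecule were incubated for 60 min at 25 °C with 1 μg of heat-folded, Cy5- or Cy3-end-labelled RNA library in phosphate/NaCl/KCl buffer. Hot SDS eluted the RNA that stayed bound after three washes, and this RNA was hybridised for 20 h at 55.5 °C to a DNA barcode microarray. Binding was expressed as a Z-score against the library mean and standard deviation, after subtraction of a beads-only signal and trimmed averaging of barcoded replicate probes.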

Compared with “GAGGGGCUUACUGCCCUGUGGGGCUCUCUGGACCCAGUGCCAUGCUUCUC [hsa-mir-6728]”, “GAGGUCUUCCCAUGCUAAGAAGUCCUC [hsa-mir-2116]” is higher in “pull-down binding Z-score” value: 0.295 for the first, 1.19 for the second.

First: GAGGUGGGAAGGCUGCCCCAAAUGGCCUCUAACAUCCCUUCCAGUCUCCUCCUC [hsa-mir-6127]
Second: GAGGUUGCAGUGAGCCAAGAUCGUG [hsa-mir-4459]
The “pull-down binding Z-score” value of the first is lower: 0.194 for the first, 0.743 for the second.

Compared with GAGUACCUUCCAACACGAGCUCUC [hsa-mir-3664], GAGUAUUUUAAUACUGGCAUACUC [hsa-mir-1263] is lower in “pull-down binding Z-score” value: 0.318 for the first, -0.837 for the second.

Compared with GAGUCAGAAAAACUAC [hsa-mir-601], “GAGUCCUAUUUAUUUUUAGGAUAUUAGGAA [hsa-mir-5692c-2]” is lower in “pull-down binding Z-score” value: 0.484 for the first, -0.394 for the second.

First: GAGUGAAUC [hsa-mir-3610]
Second: GAGUGAGGCCCAGUGGUCACCGCCGCCCUC [hsa-mir-4754]
The “pull-down binding Z-score” value of the first is lower: -0.454 for the first, 1.11 for the second.

Going from GAGUGGUCGGGUCGACUGAACC [hsa-mir-4726] to “GAGUGUAAUUACGUACAUGCAGUAGCUC [hsa-mir-618]”, the “pull-down binding Z-score” value falls from 1.23 to 0.341.

Going from GAGUUGCUGAGUGGGUUGAUCUC [hsa-mir-6764] to “GAGUUUGGAAUUAAAAUCAAAACC [hsa-mir-181a-1]”, the “pull-down binding Z-score” value falls from 0.122 to -0.398.

Compared with “GAGUUUGGAGUCGGUGGGUGGAGCCAAACUG [hsa-mir-6860]”, GAGUUUGGGAUUUGAAAAAACC [hsa-mir-181a-2] is lower in “pull-down binding Z-score” value: 1.5 for the first, 0.394 for the second.

Compared with GAGUUUGGGCAGCUCAGGCAAACC [hsa-mir-181c], “GAUAUGCCAUUAUGUGGGUCAUGAGGUGGUGA [hsa-mir-6864]” is higher in “pull-down binding Z-score” value: 0.492 for the first, 0.738 for the second.

First: GAUCCAGCCCAGGCUGGUUCCGCUGAC [hsa-mir-4522]
Second: GAUCCGGGAACCCACAGCCCCGUUC [hsa-mir-6783]
The “pull-down binding Z-score” value of the first is higher: 1.23 for the first, 0.886 for the second.

First: GAUCCUUUGUUCUGGAUC [hsa-mir-7856]
Second: GAUGAAGAUUAAUCCCUAAUCCCCAACA [hsa-mir-6757]
The “pull-down binding Z-score” value of the first is lower: -0.266 for the first, 0.0739 for the second.

Going from GAUGCUGUAUAUCUGAAAGGUAC [hsa-mir-101-2] to GAUGCUGUCUAUUCUAAAGGUAC [hsa-mir-101-1], the “pull-down binding Z-score” value falls from -0.126 to -0.577.

Compared with “GAUGGAGGAAUCACAUGAAUUCAUC [hsa-mir-2115]”, GAUGGAUUCUUAUGCUCCAUC [hsa-mir-136] is lower in “pull-down binding Z-score” value: -0.627 for the first, -0.631 for the second.

Compared with “GAUGGGAUUAGAAACCAUAUGUCUCAUC [hsa-mir-3617]”, “GAUGUAUCCAAGUACCCUGUGUUAUUUGGCAAUAAAUACAUC [hsa-mir-1298]” is lower in “pull-down binding Z-score” value: -0.25 for the first, -1.27 for the second.

Compared with GAUGUUUCUGCCAGUUUAGCGUC [hsa-mir-505], “GAUUAUUGUAAGCAGGAUCCAUUCAAUAAUC [hsa-mir-5188]” is lower in “pull-down binding Z-score” value: 0.0886 for the first, -0.366 for the second.

Compared with GAUUCGCUUUACUUAUGACGAAUC [hsa-mir-382], “GAUUCUGAUUCAGGGACCAAGAUUC [hsa-mir-544a]” is higher in “pull-down binding Z-score” value: -0.424 for the first, 1.04 for the second.

Going from “GAUUCUUGAGGCUUGGAAGAGUAAGGAUC [hsa-mir-6866]” to GAUUGAAGUUGAAUAGUGC [hsa-mir-3161], the “pull-down binding Z-score” value falls from 0.34 to -0.125.

Going from GAUUGCUAAUAGUACCAAUC [hsa-mir-34c] to GAUUGGUCUGUGGUCCUCUC [hsa-mir-3615], the “pull-down binding Z-score” value falls from 0.79 to -0.565.

First: GAUUGGUUAGCCUAAGACUUGUUCUGAUCCAAUC [hsa-mir-5701-1_5701-2_5701-3]
Second: GAUUUCUAUGAGAACAUC [hsa-mir-3675]
The “pull-down binding Z-score” value of the first is higher: 0.513 for the first, -1.02 for the second.

Compared with GAUUUUUUAGAUUCUAAAGAAAC [hsa-mir-1255a], “GCAAGGCUGUAGUGUGCACAGCCUUGA [hsa-mir-4452]” is higher in “pull-down binding Z-score” value: -1.02 for the first, 0.936 for the second.

Going from “GCAAGGUUGUUGGUGAUAUGGCUUCCUCUC [hsa-mir-4685]” to GCAAUCAGGACUGGGUCAUUC [hsa-mir-6873], the “pull-down binding Z-score” value rises from 0.0508 to 0.572.

First: GCACCUGUUUGUGAC [hsa-mir-4718]
Second: GCACUCUGUAGUUUGGGUACACAGUGC [hsa-mir-5011]
The “pull-down binding Z-score” value of the first is higher: -0.457 for the first, -0.77 for the second.

First: GCAGAAAUCACUCCAGGAGCAACUGA [hsa-mir-936]
Second: GCAGAGAAGACAGUGAGCUUGCCAGUUCUGGUUUCCAACACUUCCUUUCCUGCG [hsa-mir-3911]
The “pull-down binding Z-score” value of the first is lower: 0.625 for the first, 0.975 for the second.

First: GCAGAGCAGGACGCCGCUGCUGC [hsa-mir-8072]
Second: GCAGAUAGUGGUCCUCUCCGUGCUACCGC [hsa-mir-106b]
The “pull-down binding Z-score” value of the first is higher: 0.817 for the first, 0.316 for the second.

Compared with GCAGAUUCUCUCUCUC [hsa-mir-4279], GCAGCACUGUGCUGGGGAUGUUGC [hsa-mir-1301] is higher in “pull-down binding Z-score” value: 0.189 for the first, 1.04 for the second.

Compared with GCAGCAGGCACCUGCUUCC [hsa-mir-6868], GCAGCCAGUCCUGUCUCACCGC [hsa-mir-6812] is lower in “pull-down binding Z-score” value: 0.984 for the first, 0.14 for the second.

First: GCAGCCUUCUGCCUUUGGCUUUCUGAAGCGAGCUGA [hsa-mir-7158]
Second: GCAGCCUUGC [hsa-mir-4298]
The “pull-down binding Z-score” value of the first is higher: 0.769 for the first, 0.264 for the second.

First: GCAGCUAGUAAUAUGAGCCCAGUUGC [hsa-mir-153-2]
Second: GCAGCUAGUAUUCUCACUCCAGUUGC [hsa-mir-153-1]
The “pull-down binding Z-score” value of the first is higher: -0.011 for the first, -0.204 for the second.

In the case of “GCAGCUGGAAUUCAAGCCCUGCUGC [hsa-mir-6882]”, the “pull-down binding Z-score” value is reported as -0.475.

test system: TO-3-N3 (biotin conjugate); experiment: as above; conditions: RNA library: Library-2
Method in brief: as §1

Compared with “GAGGGGCUUACUGCCCUGUGGGGCUCUCUGGACCCAGUGCCAUGCUUCUC [hsa-mir-6728]”, “GAGGUCUUCCCAUGCUAAGAAGUCCUC [hsa-mir-2116]” is higher in “pull-down binding Z-score” value: -0.224 for the first, 1.51 for the second.

First: GAGGUGGGAAGGCUGCCCCAAAUGGCCUCUAACAUCCCUUCCAGUCUCCUCCUC [hsa-mir-6127]
Second: GAGGUUGCAGUGAGCCAAGAUCGUG [hsa-mir-4459]
The “pull-down binding Z-score” value of the first is higher: -0.0543 for the first, -0.147 for the second.

Going from GAGUACCUUCCAACACGAGCUCUC [hsa-mir-3664] to GAGUAUUUUAAUACUGGCAUACUC [hsa-mir-1263], the “pull-down binding Z-score” value falls from -0.183 to -0.584.

Going from GAGUCAGAAAAACUAC [hsa-mir-601] to “GAGUCCUAUUUAUUUUUAGGAUAUUAGGAA [hsa-mir-5692c-2]”, the “pull-down binding Z-score” value falls from 0.125 to -0.421.

First: GAGUGAAUC [hsa-mir-3610]
Second: GAGUGAGGCCCAGUGGUCACCGCCGCCCUC [hsa-mir-4754]
The “pull-down binding Z-score” value of the first is lower: -0.31 for the first, 0.828 for the second.

Going from GAGUGGUCGGGUCGACUGAACC [hsa-mir-4726] to “GAGUGUAAUUACGUACAUGCAGUAGCUC [hsa-mir-618]”, the “pull-down binding Z-score” value falls from 0.829 to 0.405.

Going from GAGUUGCUGAGUGGGUUGAUCUC [hsa-mir-6764] to “GAGUUUGGAAUUAAAAUCAAAACC [hsa-mir-181a-1]”, the “pull-down binding Z-score” value falls from 0.17 to -0.619.
